# According to patent US11459369B2, “Fusion protein for alpha-melanocyte stimulating hormone and preparation method and use thereof” (LANZHOU UNIVERSITY, priority 2015, dated 2022):
# Tests used:
# [1] = Validation of the ability to cross the BBB: level of fusion protein in hippocampal tissue homogenate by HSA ELISA; format: in vivo; conditions: mice, 1 μm/kg single intravenous injection, hippocampal tissue 6 h after administration
# Description: Validation of the Ability to Across BBB of PTD-HSA-L-α-MSH
# HSA Elisa Kit (cygnustechnologies).
# 10 mice (18-22 g) were used in the experiment, and were purchased from Laboratory Animal Center of Lanzhou University.
# Mice were housed in groups of at most five animals per cage with clean water and food available ad libitum. PTD-HSA-L-α-MSH or HSA-L-α-MSH were given at a dosage of 1 μm/kg through a single intravenous injection in 150 μL volume. Mice were anesthetized 6 h after drug administration. The hippocampal tissue was harvest and homogenized immediately. Finally the level of PTD-HSA-L-α-MSH or HSA-L-α-MSH in hippocampal tissue homogenate was tested by ELISA.
# TNF-α = assay: Experimental brain inflammation of mouse induced by LPS: TNF-α in hippocampal tissue homogenate by ELISA; format: in vivo; conditions: mice
# Excerpt: Neuroprotection of TAT-HSA-α-MSH on Experimental Brain Inflammation in Mice
# TNF-a Elisa Kit (Dakewei, China).
# 20 mice (18-22 g) were used in the experiment, and were purchased from Laboratory Animal Center of Lanzhou University.
# Lipopolysaccharide (LPS), a gram negative bacterial endotoxin, is the cell wall component of gram negative bacteria. Within the CNS, LPS challenge triggers central inflammatory responses, which results in releasing of proinflammatory mediators such as TNF-α. Therefore, to determine whether the described PTD-HSA-L-α-MSH can inhibit the production of pro-inflammatory factors in vivo, experimental brain inflammation of mouse induced by LPS was established, in which TNF-α was analyzed to detect the efficacy of PTD-HSA-L-α-MSH.
# Mice were housed in groups of at most five animals per cage with clean water and food available ad libitum. The mice in control group were injected with 150 μL saline two times. The mice in LPS group were injected with 150 μL LPS at the dose of 5 mg/kg, and then injected with 150 μL saline. The mice in PTD-HSA-L-α-MSH+LPS group were injected with 150 μL LPS at the dose of 5 mg/kg, and then injected with 150 μL PTD-HSA-L-α-MSH at the dose of 1 μm/kg. The mice in α-MSH+LPS group were injected with 150 μL LPS at the dose of 5 mg/kg, and then injected with 150 μL α-MSH at the dose of 1 μm/kg. Mice were anesthetized 2 h after drug administration. […]
# [2] = rat, iv administration, full length peptide; cited from earlier work
Substance,"PTD-HSA-L-α-MSH(ng/mL), level in hippocampal tissue homogenate tested by ELISA [1] [ng/mL]","TNF-α (pg/mg protein) in hippocampal tissues tested by ELISA (TNF-α; LPS 5 mg/kg then substance 1 μm/kg, hippocampal tissue 2 h after administration) [pg/mg protein]","effect on TNF-α increase compared with LPS group (TNF-α; LPS 5 mg/kg, single dose of 1 μm/kg intraperitoneally)",half-life [2]
"HSA-L-α-MSH: fusion protein of HSA, linker and α-MSH without PTD; amino acid sequence SEQ ID NO:10, about 69 KDa; comparator",0.06 ± 0.02,,,
"α-Melanocyte stimulating hormone [α-MSH, reference compound]",,155.8 ± 10.3,could not be suppressed,a few minutes
